# Measured values published in the nanobody polyreactivity screen of Harvey et al. (2022).
# Assay: yeast display, Sf9 membrane polyspecificity reagent, FACS + sequencing; frameworks hold sequencing errors
# In short: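 In a synthetic yeast display library (Saccharomyces cerevisiae BJ5465), nanobody expression was induced with galactose for 36–48 hours. FACS gates were set low and high (top ~1%) using anti-HA fluorescence for expression and streptavidin fluorescence for binding of the Sf9 membrane reagent. Each polyreactivity label is drawn from the gate of origin.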
row,Sequence,polyreactivity (PSR sort gate)
1,QVQLVESGGGLVQAGGSLRLSCAASGFIITSYAMGWYRQAPGKERELVAAIRRTGGTYYADSVKGRFTISRDNAKNTVYLQMNSLKPEDTAVYYCNTRLSYRNRGFDYWGQGTQVTVSS,high polyreactivity
2,QVQLVESGGGLVQAGGSLRLSCAASGFIIYTYAMGWYRQAPGKERELVAAISRGGRTNYADSVKGRFTISRDNAKNTVYLQMNSLKPEDTAVYYCASSYSHRYDYWGQGSQVTVSS,high polyreactivity
3,QVQLVESGGGLVQAGGSLRLSCAASGFIIYYYAMGWYRQAPGKERELVARISRRGGSTYYADSVKGRFTISRDNAKNTVYLQMNSLKPEDTAVYYCNAERRYSWYSQGDYWGQGTQVSVSS,high polyreactivity
4,QVQLVESGGGLVQAGGSLRLSCAASGFILARNAMGWYRQAPGKERELVAAITRRGGSTYYADSVKGRFTISRDNAKNTVYLQMNSLKPEDTAVYYCAAAAGPIPQERYYWGQGTHVTVSS,high polyreactivity
5,QVQLVESGGGLVQAGGSLRLSCAASGFILAWYAMGWYRQAPGKERELVAAISTSGDSTYYADSVKGRFTISRDNAKNTVYLQMNSLKPEDTAVYYCAAGTFKPYWRKFEYWGQGTQVTLSS,high polyreactivity
6,QVQLVESGGGLVQAGGSLRLSCAASGFILDTYGMGWYRQAPGKERELVAAISQSDVSTYYADSVKGRFTISRDNAKNTVYLQMNSLKQEDTAVYYCAADRGGLRWFWQVVYDYWGQGTQVTVSS,low polyreactivity
7,QVQLVESGGGLVQAGGSLRLSCAASGFILEAYAMGWYRQAPGKERELVAAITRRGTRTYYADSVKGRFTLSRDNAKNTVYLQMNSLKPEDTAVYYCNAESRSTWVAGYDYWGQGTQVTVSS,high polyreactivity
8,QVQLVESGGGLVQAGGSLRLSCAASGFILEGYAMGWYRQAPGKERELVAAITRRGTRTYYADSVKGRFTISRDNAKNTVYLQMNSLKPEDTAVFYCNAESRSTWVAGYDYWGQGTQVTVSS,high polyreactivity
9,QVQLVESGGGLVQAGGSLRLSCAASGFILGGYAMGWYRQAPGKERELVAAISWSSGSTYYADSVKGRFTISRDNAKTTVYLQLNSLKPEDTAVYYCAAVGAYDYWGQGTQVTVSS,low polyreactivity
10,QVQLVESGGGLVQAGGSLRLSCAASGFILGLNAMGWYRRAPGKEREFVADISWSGDSTYYADSVKGRFTISRDNAKNTVYLQMNSLKPEDTAVYFCAADRYYNWGYYYWGQGTQVTVSS,low polyreactivity
11,QVQLVESGGGLVQAGGSLRLSCAASGFILGQYTMGWYRQAPGKERELVASINGSDGITYYADSVKGRFTISRDNAKNTVYLQMNSLKPEDTAVYYCARPPRHYTFWGRRFYYWGQGTQVTVSS,low polyreactivity
12,QVQLVESGGGLVQAGGSLRLSCAASGFILGTNAMGWYRQAPGKERELVAAISYSGGSTNYADSVKGRFTISRDNAKNTVYLQMYSLKPEDTPVYYCNRDPRKYGKLDYWGQGTQVTVSS,low polyreactivity
13,QVQLVESGGGLVQAGGSLRLSCAASGFILKPYAMGWYRQAPWKERELVAAITYSGSSTYYADSVKGRFTISRDNAKNTVYLQMNSLKPEDTAVYYCAARDWSHPRRLFYWGQGTQVTVSS,high polyreactivity
14,QVQLVESGGGLVQAGGSLRLSCAASGFILNAYTMGWYRQAPGKERELVATITINGGSTYYADSVKGRFTISRDNAKNTVYLQMNSLKPEDTPVYYCNADYWYKYDYWGQGTQVTVSS,low polyreactivity
15,QVQLVESGGGLVQAGGSLRLSCAASGFILQYNAMGWYRQAPGKERELVAAITRSGVSTYYADSVKGRFTISRDNAKNTVYLQMNSLKPEDTAVYYCAATGGDRYEAYYYWGQGTQVTVSS,low polyreactivity
16,QVQLVESGGGLVQAGGSLRLSCAASGFILRYNAMGWYRQAPGKERELVAAISYTGDRTYYADSVKGRFTISRDNAKNTVYLQMNSLKPEDTAVYYCNAGKGQRALVRIGSKLMYYWGQGTQVTVSS,high polyreactivity
17,QVQLVESGGGLVQAGGSLRLSCAASGFILSDNAMGWYRQAPGKEREFVAAITSSGGSTHYADSVKGRFTISRDNAKNTVYLQMNSLKPEDTAVYYCAVGRPYWYDVWSFVSHYDYWGQGTQVTVSS,low polyreactivity
18,QVQLVESGGGLVQAGGSLRLSCAASGFILSDNAMGWYRQAPGKEREFVAAITSSGGSTHYADSVKGRFTISRDNAKNTVYLQMNSLKPEDTAVYYCNTYPYLWGQGTQVTVSS,low polyreactivity
19,QVQLVESGGGLVQAGGSLRLSCAASGFILSDYAMGWYRQAPGKERELVAGINSGGSTYYADSVKGRFTISRDNAKNTVYLQMNSLIPEDTAVYYCAAGVDYWWLVHFLYYYWGQGTQVTVSS,high polyreactivity
20,QVQLVESGGGLVQAGGSLRLSCAASGFILSVYAMGWYRQAPGTETELVAAISKRGGSTNYADSVKGRFTISRDNAKDTVYLQMNSLKPEDTAVYYCAKARAGFLYDHWGQGTQVTVSS,high polyreactivity
21,QVQLVESGGGLVQAGGSLRLSCAASGFILTQYAMGWYREAPGKERELVASISSSGSTYYADSVKGRFTISRDNAKNTVYLQMNSLKPEDTGVYYCATPGPAVHGTRGEYDYWGQGTQVTVSS,high polyreactivity
